Drawing on patent US20190071467A1, this text covers percent decrease of SOD1-G93A bound to mitochondria and percent reduction of SOD1-G93A bound to VDAC1 for one molecule.

Assay [1] addresses VDAC1 on intact mitochondria purified from NSC34 cells (mouse (NSC34 cell line)) (UniProt Q60932). The assay can be described thus: competition with SOD1-G93A on intact NSC34 mitochondria, fractionation, immunoblot. (Immunoblotting shows a protein as a band on a membrane.)
The target of assay [2] is human VDAC1, recombinant, C-terminal His-tag, refolded in LDAO (human) (UniProt P21796). The assay is described as follows: competition pull-down on VDAC1-coated magnetic beads (30 uM VDAC1, 6.5 uM SOD1-G93A), anti-SOD1 immunoblot.
UniProt P21796, sequence (P21796 other isoform, or with tags, fused parts or gaps limits assumed): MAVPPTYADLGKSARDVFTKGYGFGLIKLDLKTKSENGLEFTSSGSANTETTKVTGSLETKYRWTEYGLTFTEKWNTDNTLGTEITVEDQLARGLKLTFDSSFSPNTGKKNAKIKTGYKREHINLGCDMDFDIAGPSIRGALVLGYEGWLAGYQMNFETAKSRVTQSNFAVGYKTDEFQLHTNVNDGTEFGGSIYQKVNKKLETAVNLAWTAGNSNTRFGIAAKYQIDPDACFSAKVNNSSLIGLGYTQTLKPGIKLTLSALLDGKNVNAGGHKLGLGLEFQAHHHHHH

UniProt Q60932, sequence (Q60932 whole entry): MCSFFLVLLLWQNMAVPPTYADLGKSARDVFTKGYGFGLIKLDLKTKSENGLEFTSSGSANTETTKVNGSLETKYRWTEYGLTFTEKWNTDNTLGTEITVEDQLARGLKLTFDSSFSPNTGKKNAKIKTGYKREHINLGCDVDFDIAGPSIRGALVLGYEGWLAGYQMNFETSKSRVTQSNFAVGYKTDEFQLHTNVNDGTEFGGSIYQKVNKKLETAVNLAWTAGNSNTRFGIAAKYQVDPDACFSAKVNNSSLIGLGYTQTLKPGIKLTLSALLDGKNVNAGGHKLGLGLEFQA

Turning to IAAQLLAYYFT [synthetic peptide NHK1], in assay [1], the percent decrease of SOD1-G93A bound to mitochondria at 60 µM NHK1 was found to be 90%. In addition, in assay [2], the percent reduction of SOD1-G93A bound to VDAC1 at 10 µM NHK1 is 40% and the percent reduction of SOD1-G93A bound to VDAC1 at 25 µM NHK1 was found to be 80%.
